# Data reported in EP3492597A2.
# Target: human hepatocyte growth factor receptor (hHGFR) (human) (UniProt P08581)
# Experiment: cell-based or functional assay
# Chain of UniProt P08581 (P08581 25-1390): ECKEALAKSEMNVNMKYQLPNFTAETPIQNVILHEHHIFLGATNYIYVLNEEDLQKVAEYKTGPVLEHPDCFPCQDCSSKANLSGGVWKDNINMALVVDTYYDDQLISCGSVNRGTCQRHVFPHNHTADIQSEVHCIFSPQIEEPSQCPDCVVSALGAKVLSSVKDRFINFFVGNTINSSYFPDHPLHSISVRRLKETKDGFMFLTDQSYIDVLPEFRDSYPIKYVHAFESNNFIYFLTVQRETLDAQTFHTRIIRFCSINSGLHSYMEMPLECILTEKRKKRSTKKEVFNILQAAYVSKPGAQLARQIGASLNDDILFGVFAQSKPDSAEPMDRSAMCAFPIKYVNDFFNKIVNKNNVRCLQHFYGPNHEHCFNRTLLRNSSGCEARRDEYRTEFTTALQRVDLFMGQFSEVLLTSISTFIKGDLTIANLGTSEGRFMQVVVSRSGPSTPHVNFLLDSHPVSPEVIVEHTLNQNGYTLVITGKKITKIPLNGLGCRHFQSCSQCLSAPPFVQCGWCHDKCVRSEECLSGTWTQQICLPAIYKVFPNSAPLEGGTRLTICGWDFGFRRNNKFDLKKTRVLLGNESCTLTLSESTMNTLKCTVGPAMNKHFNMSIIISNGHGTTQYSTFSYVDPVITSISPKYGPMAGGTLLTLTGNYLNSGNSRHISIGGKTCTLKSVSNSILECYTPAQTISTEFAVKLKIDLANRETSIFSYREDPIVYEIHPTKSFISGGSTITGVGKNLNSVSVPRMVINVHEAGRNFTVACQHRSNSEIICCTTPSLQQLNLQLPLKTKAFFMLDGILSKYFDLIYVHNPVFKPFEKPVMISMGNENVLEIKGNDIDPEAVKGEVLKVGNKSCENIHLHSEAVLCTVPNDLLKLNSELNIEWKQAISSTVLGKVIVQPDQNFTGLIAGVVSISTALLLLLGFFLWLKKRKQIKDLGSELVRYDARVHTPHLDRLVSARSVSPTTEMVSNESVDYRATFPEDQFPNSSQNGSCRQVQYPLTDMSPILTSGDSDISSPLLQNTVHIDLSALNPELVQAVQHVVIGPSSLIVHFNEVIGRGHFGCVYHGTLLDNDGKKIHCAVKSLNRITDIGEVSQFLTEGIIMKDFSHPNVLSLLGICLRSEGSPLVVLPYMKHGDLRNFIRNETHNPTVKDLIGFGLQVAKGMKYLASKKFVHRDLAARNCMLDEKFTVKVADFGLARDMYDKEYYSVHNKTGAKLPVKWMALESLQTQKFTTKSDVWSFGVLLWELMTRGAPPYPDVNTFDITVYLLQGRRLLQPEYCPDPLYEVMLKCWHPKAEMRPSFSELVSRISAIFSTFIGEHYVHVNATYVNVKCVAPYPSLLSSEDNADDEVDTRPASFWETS
Substance,transduction of T47D+hHGFR cells against parental T47D cells [fold],"transduction efficiency (EGFP expression, 72 hr) in T47D+hHGFR cells against T47D cells [fold]"
S663V+T492V mutant AAV3 capsid (rAAV3-S663V+T492V vector),> 5,
wild-type AAV3 capsid (scAAV3-CBAp-EGFP vector),> 5,8 to 13
Y705+731F double-mutant AAV3 capsid (Y705+731F scAAV3-CBAp-EGFP vector),> 5,
